Experimental data: patent publication US20260250410A1 (SICHUAN HUIYU PHARMACEUTICAL, published 2026)
Numbering of substitutions follows the chain as printed. Each block holds one binder with its values, some of them ahead of it.

Columns and labels:
HuCDCP1-A [1] = target: T1, HuCDCP1-A (human, UniProt Q9H5V8 30-430); experiment: SPR (Caterra), antigen immobilized
T1 construct: range 30-430; expressed in HEK-293T, purified by Fc/his tag; also called human CDCP1-A; membrane-distal region of CDCP1; not shown: Fc or his tag
T1 sequence (looked up): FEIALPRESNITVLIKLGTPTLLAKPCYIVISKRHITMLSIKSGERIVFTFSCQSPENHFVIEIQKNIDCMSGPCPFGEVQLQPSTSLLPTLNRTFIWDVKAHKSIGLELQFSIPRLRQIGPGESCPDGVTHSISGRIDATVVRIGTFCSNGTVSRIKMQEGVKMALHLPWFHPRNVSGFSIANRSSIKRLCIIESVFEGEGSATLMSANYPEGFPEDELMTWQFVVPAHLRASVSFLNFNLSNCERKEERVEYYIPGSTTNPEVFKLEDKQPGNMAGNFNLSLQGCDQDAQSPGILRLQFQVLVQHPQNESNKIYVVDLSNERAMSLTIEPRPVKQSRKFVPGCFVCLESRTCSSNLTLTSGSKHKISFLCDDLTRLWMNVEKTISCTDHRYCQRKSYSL
Method: (§1) The humanized anti-CDCP1 antibodies obtained from Example 11 were subjected to gene cloning, constructed into pTT5 expression vector for a small amount of expression in CHO cells (Expi-CHOS: Gibco A29127), and purified with an Fc affinity column (AT Protein A Diamond Plus. No. AA402312). Antibody purity was analyzed by HPLC and determined by Nanodrop. High-throughput affinity assay was carried out for a small amount of antibodies by Caterra.
(§2) Further, Partial anti-CDCP1 humanized antibodies were selected for expression, and then the affinity of the antibodies to the antigens Hu-CDCP1-A, Hu-CDCP1-B, Cyno-CDCP1, and Ms-CDCP1 was detected according to the above affinity detection method.

MsCDCP1 = target: T2, MsCDCP1 (mouse, UniProt Q5U462 30-666); experiment: SPR (Caterra), antigen immobilized
T2 construct: extracellular domain; also called mouse CDCP1; not shown: Fc or his tag
T2 sequence (looked up): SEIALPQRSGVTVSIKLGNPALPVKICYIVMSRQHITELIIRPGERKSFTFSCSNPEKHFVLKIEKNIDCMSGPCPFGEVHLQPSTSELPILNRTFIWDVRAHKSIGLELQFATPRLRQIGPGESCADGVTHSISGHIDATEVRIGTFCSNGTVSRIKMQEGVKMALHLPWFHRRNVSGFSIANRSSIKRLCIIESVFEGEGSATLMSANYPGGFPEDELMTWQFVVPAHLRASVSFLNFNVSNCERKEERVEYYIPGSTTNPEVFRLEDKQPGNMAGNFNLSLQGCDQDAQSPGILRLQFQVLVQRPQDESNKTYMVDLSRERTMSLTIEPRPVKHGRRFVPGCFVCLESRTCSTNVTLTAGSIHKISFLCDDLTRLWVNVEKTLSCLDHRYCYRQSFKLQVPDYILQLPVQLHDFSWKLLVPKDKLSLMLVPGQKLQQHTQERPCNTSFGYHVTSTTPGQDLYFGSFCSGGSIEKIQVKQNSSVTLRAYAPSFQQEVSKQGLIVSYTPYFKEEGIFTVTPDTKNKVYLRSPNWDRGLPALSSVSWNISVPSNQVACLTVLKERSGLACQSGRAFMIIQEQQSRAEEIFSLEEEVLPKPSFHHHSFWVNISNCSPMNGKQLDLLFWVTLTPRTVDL
Method: as §1, §2

[2] = target: T3, human CDCP1 on tumor cells (human, UniProt Q9H5V8 30-836); experiment: flow cytometry, PC3 cells
T3 construct: whole, on cells; cell line is named under assay or readout
T3 sequence (looked up): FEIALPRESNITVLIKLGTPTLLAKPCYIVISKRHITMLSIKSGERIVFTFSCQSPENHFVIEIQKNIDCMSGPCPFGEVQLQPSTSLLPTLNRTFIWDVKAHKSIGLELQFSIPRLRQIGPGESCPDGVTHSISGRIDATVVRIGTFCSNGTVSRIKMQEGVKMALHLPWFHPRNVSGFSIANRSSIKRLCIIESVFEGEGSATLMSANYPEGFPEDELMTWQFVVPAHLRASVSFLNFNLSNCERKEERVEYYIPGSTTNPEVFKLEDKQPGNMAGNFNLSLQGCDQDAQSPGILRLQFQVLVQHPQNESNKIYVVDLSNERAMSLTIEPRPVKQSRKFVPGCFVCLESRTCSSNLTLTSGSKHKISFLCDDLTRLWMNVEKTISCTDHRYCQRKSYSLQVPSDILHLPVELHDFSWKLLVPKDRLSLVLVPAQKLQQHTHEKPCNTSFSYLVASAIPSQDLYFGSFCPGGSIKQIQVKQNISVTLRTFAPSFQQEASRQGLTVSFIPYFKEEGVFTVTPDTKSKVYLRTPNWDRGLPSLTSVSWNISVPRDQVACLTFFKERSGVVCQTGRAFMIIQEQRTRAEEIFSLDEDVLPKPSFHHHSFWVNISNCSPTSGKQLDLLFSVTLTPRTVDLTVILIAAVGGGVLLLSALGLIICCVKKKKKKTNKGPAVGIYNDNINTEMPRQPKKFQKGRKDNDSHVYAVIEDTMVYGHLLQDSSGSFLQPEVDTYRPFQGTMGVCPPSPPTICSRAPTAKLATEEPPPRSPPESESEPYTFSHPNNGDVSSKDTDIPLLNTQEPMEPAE
Method: Flow cytometry was used to detect the binding capacity of antibody to tumor cells. […] 2.0×10⁴ tumor cells were added per well, respectively, and 50 μL (PBS+2% FBS) were added, and after blocking at room temperature with an Fe blocker (Human TruStain FcX™, Biolegend, 422302) for 10 mins, an anti-CDCP1 murine monoclonal antibody at a final concentration of 200 nM was added. The obtained mixture was subjected to a 3-fold serial dilution across 8 concentration points, and incubated at 4° C. for 30 mins, and then incubated with a secondary antibody (PE anti-human IgG Fc Antibody, Biolegend, 410708), detection was performed using a flow cytometer.

HuCDCP1-A [3] = target: T1, HuCDCP1-A; experiment: SPR (Caterra or Biacore), antigen immobilized

B1: 1CP-117 (antibody, human IgG1, kappa, V domains shown)
VH: QVQLVQSGSELKKPGASVKVSCKASGYTLTDFSMHWVRQAPGQGLEWMGWINTETGAPTYADDFKGRFVLSLDTSVSTAYLQISSLKAEDTAVYYCSRGRDYDPHFDYWGQGTLVTVSS
VL: EIVLTQSPATLSLSPGERATLSCRASQSISDFLHWYQQKPGQSPRLLIKYASQSISGIPARFSGSGSGSDFTLTISSVEPEDFAVYYCQSAHSFPYTFGQGTKLEIKR
notes: humanized 8E5, human IgG1 kappa
Kd (HuCDCP1-A [1]): 76.5 nM | Kd (MsCDCP1): 212 nM

B2: 1CP-121 (antibody, human IgG1, kappa, V domains shown)
VH: B1 VH
VL: B1 VL with P40S
notes: as for B1
Kd (HuCDCP1-A [1]): 99.8 nM | Kd (MsCDCP1): 141 nM

B3: 8E5 (antibody, V domains shown)
VH: EVQLKESGPELKKPGETVKISCKASGYTLTDFSMHWLKQAPGKGLKWMGWINTETGAPTYADDFKGRFALSLDTSANTAYLQINNLKNEDTATYFCSRGRDYDPHFDYWGQGTTVTVSS
VL: EIVLTQSPATLSVTPGDRVSLSCRASQSISDFLHWYQQRSHESPRLLIKYASQSISGIPSRFGGSGSGSDFTLNINTVEPEDVGMYYCQSAHSFPYTFGGGTKLEIK
notes: murine hybridoma mAb; also called 8ES
EC50 [2]: 0.63 nM | EC50 (HuCDCP1-A [3]): 79.3 nM

B6: 12E6 (antibody, V domains shown)
VH: EVQLKESGPGILQPSQTLSLTCSFSGFSLSTSGMGVGWIRQPSGKGLEWLAHIWWDDVKLYNPALKSRLTISKETSNNQVFLKIASVDAADTATYYCARIDHGYGSNYWDFDVWGAGTTVTVSS
VL: DIVMTQAAPSVPVTPGGSVSISCRSTKSLLHSDGKTYLYWFLQRPGQSPQLLIYRMSNLASGVPDRFSGSGSGTAFTLRISRVEAEDVGVYYCMQHLEYPFTFGSGTKLEIK
notes: murine hybridoma mAb
EC50 [2]: 10.1 nM | EC50 (HuCDCP1-A [3]): 1.67 nM

B9: 5B8 (antibody, V domains shown)
VH: EVQLKESGGGLVQPGGSLRISCATSGLTFTHYHMSWVRQPPGKAPEWLAIIRNKAYGYTTDYSASVRGRFTISRDDSQSILYLQMNTLRAEDSATYYCVREGGYGYDGTFAYWGQGTTVTVSS
VL: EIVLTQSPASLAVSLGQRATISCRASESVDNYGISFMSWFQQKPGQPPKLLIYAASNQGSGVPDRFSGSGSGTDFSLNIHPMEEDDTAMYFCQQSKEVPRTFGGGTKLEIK
notes: murine hybridoma mAb
EC50 [2]: 0.91 nM | binding result (HuCDCP1-A [3]): no binding (tested: 150 nM highest concentration)

B11: 6A7 (antibody, V domains shown)
VH: EVQLKESGAELVRPGASVKVSCKASGYSFTSYWMNWVKQRPGQGLEWIGMIHPSDSETKLNQKFRDRASLTVDKSSSTAYMQLSSPTSEDSAVYYCTINYESFYYAMDYWGQGTTVTVSS
VL: DIVMTQSPASLAVSLGQRATISCRASKSVSTSGYSYMHWYQQKPGQPPKLLLYLASNLESGVPARFSGSGSGADFTLNIHPVEEEDAATYYCLHSRELPYTFGGGTKLEIK
notes: murine hybridoma mAb
EC50 [2]: 1.35 nM | binding result (HuCDCP1-A [3]): no binding (tested: 150 nM highest concentration)

B13: 10D2 (antibody, V domains shown)
VH: EVQLQQSGPELKKPGETVKISCKASGYTFTDYSMHWVKQAPGKGLKWMGWINTETGQPTYADDFKGRFAFSLETSASSAYLQINNLKNEDTATYFCTRTFYYDYVGDYWGQGTTVTVSS
VL: DIVMTQSHKFMSTSVGDRVSITCKASQDVSTAVAWYRQKPGQSPKLLIYWASTRHTGVPDRLTGSGSGTDFALTINSVQAEDLALYYCQQHSSTPYTFGGGTKLEIK
notes: murine hybridoma mAb
EC50 [2]: 2.54 nM | EC50 (HuCDCP1-A [3]): 0.747 nM

Further lines, with some results ahead:

EC50 [2]: 0.23 nM
B4: 3C11 (antibody, V domains shown)
VH: EVQLQQSGTVLARPGASVKMSCKASGYNFISYWLHWIKQRPGQGLEWIGGIYPGNTDTTYNQKFKGKAKVTAVTSATTAYMELSSLTNEDSAVYYCIRYDYDRGMDYWGQGTTVTVSS
VL: DIQMTQSPSSFSVSLGDRVTITCRASEDIYYRLAWYQQKPGNAPRLLISGATALETGVPSRFSGSGSGKDYTLSITSLQTEDVATYYCQHYWNIPWTFGGGTKLEIK
notes: murine hybridoma mAb
binding result (HuCDCP1-A [3]): no binding (tested: 150 nM highest concentration)

EC50 [2]: 0.55 nM | EC50 (HuCDCP1-A [3]): 52.3 nM
B5: 3B12H5 (antibody, V domains shown)
VH: EVQLQQSGTVLARPGASVKMSCKASGYSFTIYWVHWVKQRPGQGLEWIGAVYPGNDDTSYNQNFKGKAKLTAVTSATTAYMELSSLTIDDSAVYYCTRHTYDEVFDYWGQGTTVTVSS
VL: B4 VL with Q3V, F11L, R24K, A51G, A53N, T56A, V58I, T85I, I94T
notes: murine hybridoma mAb; also called 3B12HS

EC50 [2]: 0.23 nM
B7: G10F6 (antibody, V domains shown)
VH: EVKLVESGPGILQPSQTLSLTCSFSGFSLSTSGMGVSWVRQPSGKGLEWLAHIYWDDDKRYNPSLKGRLTISKDTPRNQVFLEITSVDTTDTATYYCARVPGNWDEDAMDYWGQGTTVTVSS
VL: DIQMTQSPLSLPVSLGDQASISCRSSQNIVHTNGNTYLEWYLQKVGQSPKLLIYKVSNRFSGVPDRFSGSGSGTDFTLKISRVEAEDLGVYYCFQGSHVPYTFGGGTKLEIK
notes: murine hybridoma mAb
binding result (HuCDCP1-A [3]): no binding (tested: 150 nM highest concentration)

EC50 [2]: 0.1 nM
B8: 14A10C5 (antibody, V domains shown)
VH: EVKLVESGPGILQPSQTLSLTCSFSGFSLSTSGMGVSWIRQPSGKGLEWLAHIYWDDEKRYNPSLKSRLTISKDTSSNQVFLKITSVDTADTATYYCAREGSANWEAMDYWGQGTTVTVSS
VL: B7 VL with Q3V, S7A, P8A, H31Y, N35I, V45P, G73A, G96S, Y101W
notes: murine hybridoma mAb; also called 14A10CS
binding result (HuCDCP1-A [3]): no binding (tested: 150 nM highest concentration)

EC50 [2]: 0.4 nM
B10: 8C9 (antibody, V domains shown)
VH: B9 VH with A90P
VL: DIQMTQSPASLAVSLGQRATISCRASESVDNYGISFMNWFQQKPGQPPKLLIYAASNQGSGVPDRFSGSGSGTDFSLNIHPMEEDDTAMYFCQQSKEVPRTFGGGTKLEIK
notes: murine hybridoma mAb
binding result (HuCDCP1-A [3]): no binding (tested: 150 nM highest concentration)

EC50 [2]: 0.41 nM | EC50 (HuCDCP1-A [3]): 127 nM
B12: 3F1A11 (antibody, V domains shown)
VH: EVKLVESGPGLVKPSQSLSLTCTVTGYSITSDYAWNWIRQFPGNKLEWMGYISYNTYTSYNPSLKSRISVTRDTSKNQFFLQLKSVTIEDTATYFCAGGDYYGTGAVDYWGQGTTVTVSS
VL: EIVLTQSPLSLPVSLGDQASISCRSRQTLVHTNGNTYLDWYLQKPGQSPKLLIYKVSIRFSGVPDRFSGSRSGTDFTLKISRVEAEDLGIYYCFQGSHVPWTFGGGTKLEIK
notes: murine hybridoma mAb
